Experimental data taken from patent US20100167314A1 (JAPAN SCIENCE AND TECHNOLOGY AGENCY, published 2010).

B1: mouse IRBIT (IP3 receptor-binding protein; IP3R-binding protein released with inositol 1,4,5-trisphosphate) (other)
chain: MSMPDAMPLPGVGEELKQAKEIEDAEKYSFMATVTKAPKKQIQFADDMQEFTKFPTKTGRRSLSRSISQSSTDSYSSAASYTDSSDDEVSPREKQQTNSKGSSNFCVKNIKQAEFGRREIEIAEQDMSALISLRKRAQGEKPLAGAKIVGCTHITAQTAVLIETLCALGAQCRWSACNIYSTQNEVAAALAEAGVAVFAWKGESEDDFWWCIDRCVNMDGWQANMILDDGGDLTHWVYKKYPNVFKKIRGIVEESVTGVHRLYQLSKAGKLCVPAMNVNDSVTKQKFDNLYCCRESILDGLKRTTDVMFGGKQVVVCGYGEVGKGCCAALKALGAIVYITEIDPICALQACMDGFRVVKLNEVIRQVDVVITCTGNKNVVTREHLDRMKNSCIVCNMGHSNTEIDVTSLRTPELTWERVRSQVDHVIWPDGKRVVLLAEGRLLNLSCSTVPTFVLSITATTQALALIELYNAPEGRYKQDVYLLPKKMDEYVASLHLPSFDAHLTELTDDQAKYLGLNKNGPFKPNYYRY
notes: also called Mouse-derived IRBIT

Key:
[1] = target: T1, myc-tagged CPSF160 subunit of mouse CPSF (mouse, UniProt Q9EPU4 1-1441, limits assumed); assay: co-expression in COS cells, co-immunoprecipitation, detection with anti-IRBIT and anti-myc antibodies
T1 construct: Co-expressed with IRBIT in COS cells; not shown: myc tag
T1 sequence (looked up): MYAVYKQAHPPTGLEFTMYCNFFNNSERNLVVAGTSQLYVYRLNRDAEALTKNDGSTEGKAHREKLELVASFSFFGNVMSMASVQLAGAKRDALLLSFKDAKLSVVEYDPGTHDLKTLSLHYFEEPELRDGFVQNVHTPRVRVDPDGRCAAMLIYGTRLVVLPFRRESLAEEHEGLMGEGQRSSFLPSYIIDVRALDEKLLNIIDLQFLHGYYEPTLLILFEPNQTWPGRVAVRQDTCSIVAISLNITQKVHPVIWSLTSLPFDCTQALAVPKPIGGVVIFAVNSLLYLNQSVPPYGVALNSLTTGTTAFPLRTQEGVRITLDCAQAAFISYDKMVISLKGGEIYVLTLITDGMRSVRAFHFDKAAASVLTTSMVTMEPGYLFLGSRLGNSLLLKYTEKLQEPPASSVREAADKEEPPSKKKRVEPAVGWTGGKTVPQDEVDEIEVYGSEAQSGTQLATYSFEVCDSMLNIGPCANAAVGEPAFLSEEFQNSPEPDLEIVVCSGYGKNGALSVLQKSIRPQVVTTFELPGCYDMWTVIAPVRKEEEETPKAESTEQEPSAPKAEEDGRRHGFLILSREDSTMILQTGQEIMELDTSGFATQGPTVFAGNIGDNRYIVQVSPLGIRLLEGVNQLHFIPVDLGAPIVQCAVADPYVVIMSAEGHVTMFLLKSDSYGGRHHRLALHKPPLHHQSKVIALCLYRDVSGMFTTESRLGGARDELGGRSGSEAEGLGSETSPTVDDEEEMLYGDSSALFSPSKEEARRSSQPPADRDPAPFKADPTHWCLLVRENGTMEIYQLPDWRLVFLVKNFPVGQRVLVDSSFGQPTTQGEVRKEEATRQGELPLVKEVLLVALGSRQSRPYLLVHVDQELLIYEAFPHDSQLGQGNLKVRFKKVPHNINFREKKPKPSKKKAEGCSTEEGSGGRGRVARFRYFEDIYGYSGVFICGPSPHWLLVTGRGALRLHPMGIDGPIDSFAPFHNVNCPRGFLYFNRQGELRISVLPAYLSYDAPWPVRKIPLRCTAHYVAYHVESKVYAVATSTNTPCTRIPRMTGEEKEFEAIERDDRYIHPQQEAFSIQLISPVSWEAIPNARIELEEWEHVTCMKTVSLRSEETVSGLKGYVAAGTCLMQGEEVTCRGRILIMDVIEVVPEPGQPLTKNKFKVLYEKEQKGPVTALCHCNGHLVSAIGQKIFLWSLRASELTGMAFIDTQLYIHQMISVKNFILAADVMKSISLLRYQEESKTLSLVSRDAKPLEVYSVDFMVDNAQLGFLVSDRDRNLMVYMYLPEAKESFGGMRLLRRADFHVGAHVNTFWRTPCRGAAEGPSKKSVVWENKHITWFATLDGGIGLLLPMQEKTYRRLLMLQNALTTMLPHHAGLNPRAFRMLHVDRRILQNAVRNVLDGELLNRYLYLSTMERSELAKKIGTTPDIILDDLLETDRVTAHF
Procedure: CPSF is a group of conjugated proteins consisting of 4 subunits: CPSF160, CPSF100, CPSF73, and CPSF30. First, to reveal to which one of the 4 subunits IRBIT binds, myc-tagged cDNAs prepared by tagging each subunit with myc were expressed together with IRBIT in various combinations by COS cells or the like and then the way in which coprecipitation occurs upon immunoprecipitation of IRBIT or CPSF was examined.
DNA was prepared by fusing DNA encoding an myc tag to cDNA encoding the full-length of or each subunit of CPSF. The thus prepared DNA was inserted into a vector for mammals. Meanwhile, cDNA encoding IRBIT was also inserted into the same vector. COS cells were transformed with the thus prepared vector and then the above DNA was co-expressed.
Cells were separated by centrifugation and then lysed. Cytoplasmic fractions were collected and then the binding of IRBIT to CPSF was detected using an anti-IRBIT antibody (JP2004-129612 A) and an anti-myc antibody.

[2] = target: B1; assay: immunoprecipitation from mouse cerebellum with anti-IRBIT antibody
Procedure: (1) Mouse IRBIT and Myc-PIPKIIα, β, or γ were over-expressed in COS-7, followed by immunoprecipitation. Specifically, cells were solubilized with a lysis buffer (10 mM Hepes, 100 mM NaCl, 2 mM EDTA, 1% P-40, pH 7.4) and then centrifuged (20000×g, 30 minutes) to collect supernatants. Subsequently, an anti-Myc antibody or an anti-IRBIT antibody was added and then reaction was performed for 1 hour. Furthermore, protein G Sepharose® was added before one hour reaction, and the immune complex was washed with a lysis buffer and then eluted with a SDS-PAGE sample buffer. Subsequently, Western blotting was performed using an anti-Myc antibody or an anti-IRBIT antibody. As a result, IRBIT was coprecipitated with Myc-PIPKIIα, β, and γ (FIG. 4). (2) Immunoprecipitation was performed using an anti-IRBIT antibody and the mouse cerebellum, so that PIPKIIα was coprecipitated (FIG. 5). The in vivo binding of IRBIT with PIPKII was confirmed based on the results. (3) Mouse IRBIT and Myc-PIPKIIγ were overexpressed in COS-7 and then immunostaining was performed. Specifically, after fixation with 4% paraformaldehyde, transmembrane treatment with 0.1% Triton X-100 and blocking treatment with 2% goat serum were performed, a mouse anti-Myc antibody and a rabbit anti-IRBIT antibody were added, and then reaction was performed at room temperature for 1 hour. […]

B1
binding result [1]: binds

B2: mouse cerebellum PIPKIIα (enzyme, UniProt O70172 2-405, looked up)
chain: ATPGNLGSSVLASKTKTKKKHFVAQKVKLFRASDPLLSVLMWGVNHSINELSHVQIPVMLMPDDFKAYSKIKVDNHLFNKENMPSHFKFKEYCPMVFRNLRERFGIDDQDFQNSLTRSAPLPNDSQARSGARFHTSYDKRYVIKTITSEDVAEMHNILKKYHQYIVECHGVTLLPQFLGMYRLNVDGVEIYVIVTRNVFSHRLSVYRKYDLKGSTVAREASDKEKAKELPTLKDNDFINEGQKIYIDDNNKKIFLEKLKKDVEFLAQLKLMDYSLLVGIHDVERAEQEEVECEENDGEEEGESDSTHPIGTPPDSPGNTLNSSPPLAPGEFDPNIDVYAIKCHENAPRKEVYFMAIIDILTHYDAKKKAAHAAKTVKHGAGAEISTVNPEQYSKRFLDFIGHIL
notes: Endogenous protein coprecipitated with an anti-IRBIT antibody
binding result [2]: binds
